We go through two molecules from patent publication US20260109776A1 (Amgen, published 2026).

Where two headings read alike, the source gives them in different places.

One test concerns the target T1, huCD40(1-193) (human, UniProt P25942 21-193).
T1 construct: also called soluble human CD40
Briefly: Octet. As to the method: (§1) A panel of mesothelin×CD40 bispecific antibodies were generated in the IgG-scFv format (Table 13) and evaluated for binding to soluble forms of human and cynomolgus monkey CD40 and human and cynomolgus monkey mesothelin using the Octet assay (Table 14). Association rate (Kon), disassociation rate (Kdis), and equilibrium binding constant (KD) were calculated. […] These bispecific antibodies were next evaluated for their ability to induce mesothelin-dependent activation of human B cells. CHO cells expressing human mesothelin were seeded into a 96 well plate. The next day varying concentrations of the mesothelin×CD40 IgG-scFv antibodies were added to the wells along with purified human B cells and the plates were incubated for an additional 48 hours. Upregulation of CD86, a marker of CD40-mediated B cell activation, was quantified on B cells by flow cytometry.

In another test the target is T2, huMSLN(296-598) (human, UniProt Q13421 296-598).
T2 construct: also called soluble human mesothelin
T2 sequence (Q13421 other isoform, or with tags, fused parts or gaps): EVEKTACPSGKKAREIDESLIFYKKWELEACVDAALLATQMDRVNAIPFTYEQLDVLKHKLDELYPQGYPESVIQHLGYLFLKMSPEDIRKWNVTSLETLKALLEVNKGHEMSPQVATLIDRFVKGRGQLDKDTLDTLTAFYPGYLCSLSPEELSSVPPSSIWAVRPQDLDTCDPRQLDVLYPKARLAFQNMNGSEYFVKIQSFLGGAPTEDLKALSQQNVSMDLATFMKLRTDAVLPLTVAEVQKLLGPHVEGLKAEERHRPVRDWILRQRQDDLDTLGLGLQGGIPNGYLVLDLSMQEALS
Briefly: Octet. The method, then:
as §1

Another test concerns the target T3, cynoCD40(1-193) (cynomolgus monkey, UniProt P25942 21-193 (human entry)).
T3 construct: also called soluble cynomolgus monkey CD40
T3 chain: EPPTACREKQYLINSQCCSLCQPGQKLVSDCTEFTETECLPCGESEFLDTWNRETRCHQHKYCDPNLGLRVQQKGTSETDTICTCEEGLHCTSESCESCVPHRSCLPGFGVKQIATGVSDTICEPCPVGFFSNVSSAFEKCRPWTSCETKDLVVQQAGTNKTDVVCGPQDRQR
Briefly: Octet. As to the method:
as §1

Another test deals with T4, cynoMSLN(296-598) (cynomolgus monkey).
T4 chain: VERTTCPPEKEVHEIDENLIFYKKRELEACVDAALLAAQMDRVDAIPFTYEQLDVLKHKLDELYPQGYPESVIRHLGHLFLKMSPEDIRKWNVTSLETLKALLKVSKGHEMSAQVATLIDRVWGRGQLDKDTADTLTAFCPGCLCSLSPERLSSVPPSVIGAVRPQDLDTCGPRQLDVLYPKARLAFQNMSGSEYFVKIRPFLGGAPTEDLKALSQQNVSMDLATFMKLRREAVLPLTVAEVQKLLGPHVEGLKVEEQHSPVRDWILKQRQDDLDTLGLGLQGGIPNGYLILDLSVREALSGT
Briefly: Octet. The method, then:
as §1

Test [1] addresses human CD40 (human, UniProt P25942 21-277). Briefly: cell-based or functional assay.
Test [2] addresses T5, human TNFR2 (human, UniProt P20333 23-461).
T5 construct: whole, on cells
T5 sequence (looked up): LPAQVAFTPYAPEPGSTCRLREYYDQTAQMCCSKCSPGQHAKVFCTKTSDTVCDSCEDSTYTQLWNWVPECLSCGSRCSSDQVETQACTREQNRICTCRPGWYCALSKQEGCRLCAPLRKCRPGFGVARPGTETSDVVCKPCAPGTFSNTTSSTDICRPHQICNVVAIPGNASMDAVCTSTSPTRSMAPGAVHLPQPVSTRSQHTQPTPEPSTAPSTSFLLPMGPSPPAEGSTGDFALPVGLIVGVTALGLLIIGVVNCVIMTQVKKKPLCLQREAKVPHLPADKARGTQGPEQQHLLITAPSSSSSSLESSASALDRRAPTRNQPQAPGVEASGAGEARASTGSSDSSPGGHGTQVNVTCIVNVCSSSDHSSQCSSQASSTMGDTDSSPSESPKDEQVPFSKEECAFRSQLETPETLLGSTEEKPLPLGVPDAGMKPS
Briefly: flow cytometry, HEK293 transfectants vs control cells. As to the method:
(§2) The binding affinity of anti-human CD40 antibodies to human and cynomolgus monkey CD40 was measured by Octet assay (Table 3), quantifying association rate (Kon), disassociation rate (Kdis), and equilibrium binding constant (KD). Cross-reactivity of anti-CD40 antibodies to related TNF receptor superfamily (TNFRSF) members was evaluated by expressing human TNFR1, TNFR2, TNFR10, or TNFR14 on HEK293 cells by transient transfection of expression vectors encoding these genes. Binding of indicated anti-human CD40 antibody to these transfected cells was determined by flow cytometry. […] Cross-reactivity of anti-CD40 antibodies to cynomolgus monkey and mouse CD40 was evaluated by expressing cynomolgus monkey or mouse CD40 on HEK293 cells by transient transfection of expression vectors encoding these genes. Binding of indicated anti-human CD40 antibody to cells overexpressing cynomolgus monkey and mouse CD40 was determined by flow cytometry.

Test [3] has as its target T6, mouse CD40 on cells (mouse, UniProt P27512 20-289).
T6 construct: whole, on cells; also called mouse CD40 on HEK293 cells; CD40 on mouse B cells
T6 sequence (looked up): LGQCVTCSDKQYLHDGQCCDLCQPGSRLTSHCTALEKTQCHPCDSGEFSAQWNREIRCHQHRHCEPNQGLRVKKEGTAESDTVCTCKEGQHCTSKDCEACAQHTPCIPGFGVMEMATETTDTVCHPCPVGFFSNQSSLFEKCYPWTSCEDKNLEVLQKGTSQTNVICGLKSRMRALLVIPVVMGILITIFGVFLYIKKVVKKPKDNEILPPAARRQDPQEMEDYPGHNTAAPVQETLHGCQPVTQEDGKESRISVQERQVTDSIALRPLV
Described as above. As to the method:
as §2

The target in test [4] is T7, human TNFR14 (human, UniProt Q92956 39-283).
T7 construct: whole, on cells
T7 sequence (looked up): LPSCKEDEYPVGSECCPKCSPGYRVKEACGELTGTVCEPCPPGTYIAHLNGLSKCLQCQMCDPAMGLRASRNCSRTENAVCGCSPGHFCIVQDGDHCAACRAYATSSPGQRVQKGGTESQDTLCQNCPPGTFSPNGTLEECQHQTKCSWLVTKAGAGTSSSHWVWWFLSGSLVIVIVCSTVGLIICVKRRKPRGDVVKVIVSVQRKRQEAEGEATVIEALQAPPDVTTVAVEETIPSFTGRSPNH
Described as above. As to the method:
as §2

For another test, the target named is T8, human TNFR10 (human).
T8 construct: whole, on cells; Name as printed is ambiguous (TNFRSF10A-D)
Described as above. The method, then: as §2

Test [5] has as its target T9, human TNFR1 (human, UniProt P19438 30-455).
T9 construct: whole, on cells
T9 sequence (looked up): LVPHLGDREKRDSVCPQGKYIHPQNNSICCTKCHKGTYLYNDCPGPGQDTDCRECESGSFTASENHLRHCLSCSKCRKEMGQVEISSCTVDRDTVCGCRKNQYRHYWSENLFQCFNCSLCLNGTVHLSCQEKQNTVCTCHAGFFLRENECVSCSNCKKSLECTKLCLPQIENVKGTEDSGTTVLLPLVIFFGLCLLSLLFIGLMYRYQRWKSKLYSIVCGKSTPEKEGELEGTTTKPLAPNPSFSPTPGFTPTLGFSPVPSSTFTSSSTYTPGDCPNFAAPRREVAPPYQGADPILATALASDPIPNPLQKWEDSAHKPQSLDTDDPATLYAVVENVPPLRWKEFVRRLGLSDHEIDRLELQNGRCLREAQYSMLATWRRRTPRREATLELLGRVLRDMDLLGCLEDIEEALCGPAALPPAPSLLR
The description is as above. The method, then: as §2

In test [6] the target is T10, cynomolgus monkey CD40 on cells (cynomolgus monkey, UniProt P25942 21-277 (human entry)).
T10 construct: also called cyno CD40 on HEK293 cells; CD40 on cynomolgus monkey B cells
T10 chain: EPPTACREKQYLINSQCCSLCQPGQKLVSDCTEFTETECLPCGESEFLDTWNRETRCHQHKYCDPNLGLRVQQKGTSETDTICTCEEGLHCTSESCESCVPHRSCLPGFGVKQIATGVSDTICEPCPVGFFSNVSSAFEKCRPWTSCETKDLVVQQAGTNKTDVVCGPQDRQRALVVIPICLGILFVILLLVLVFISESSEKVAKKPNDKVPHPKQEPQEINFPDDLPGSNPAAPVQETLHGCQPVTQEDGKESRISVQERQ
Described as above. As to the method:
as §2

In test [7] the target is T11, human CD40 on cells (human, UniProt P25942 21-277). Briefly: cell-based or functional assay.
Target sequence in this assay (P25942 21-277 limits assumed): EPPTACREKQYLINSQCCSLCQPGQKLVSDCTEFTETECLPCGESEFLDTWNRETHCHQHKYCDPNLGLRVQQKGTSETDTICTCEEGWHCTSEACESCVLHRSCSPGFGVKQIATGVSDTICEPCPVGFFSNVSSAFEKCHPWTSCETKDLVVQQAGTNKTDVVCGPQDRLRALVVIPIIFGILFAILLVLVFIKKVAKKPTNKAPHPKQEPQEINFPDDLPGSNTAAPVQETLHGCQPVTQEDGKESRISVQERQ
Test [8] concerns the target T5, human TNFR2. Briefly: flow cytometry, HEK293 transfectants. As to the method:
as §2

In test [9] the target is T7, human TNFR14. Briefly: flow cytometry, HEK293 transfectants. The method, then: as §2
The target of test [10] is T9, human TNFR1. Briefly: flow cytometry, HEK293 transfectants. As to the method:
as §2

The target in test [11] is T11, human CD40 on cells. Briefly: flow cytometry, labelled CD40L on CD40-293T cells, antibody at 20 ug/ml. The method, then:
(§3) Percent ligand binding inhibition was calculated as [(CD40L binding gMFI in the absence of anti-CD40)−(CD40L binding gMFI in the presence of anti-CD40)]/(CD40L binding gMFI in the absence of anti-CD40). gMFI: geometric mean fluorescent intensity. All anti-CD40 antibodies show minimal effects on the ability of CD40L to bind to the CD40 receptor (Table 7).
Target sequence in this assay (P25942 21-277 limits assumed): as above

Test [12] concerns the target human CD40 (human, UniProt P25942 21-193, limits assumed). Briefly: Octet. The method, then:
as §2

The target of test [13] is T11, human CD40 on cells. Briefly: cell-based or functional assay. This is another data set of the same source.
The target in test [14] is T11, human CD40 on cells. Briefly: flow cytometry, labelled CD40L on CD40-293T cells, antibody at 2.5 ug/ml. The method, then: as §3
Target sequence in this assay (P25942 21-277 limits assumed): as above
The target in test [15] is T6, mouse CD40 on cells. Briefly: flow cytometry, HEK293 transfectants.
In test [16] the target is T11, human CD40 on cells. Briefly: flow cytometry, labelled CD40L on CD40-293T cells, antibody at 5 ug/ml. The method, then:
as §3
Target sequence in this assay (P25942 21-277 limits assumed): as above

In test [17] the target is T11, human CD40 on cells. Briefly: flow cytometry, labelled CD40L on CD40-293T cells, antibody at 10 ug/ml. The method, then:
as §3
Target sequence in this assay (P25942 21-277 limits assumed): as above

human CD40 (human, UniProt P25942 21-193, limits assumed), sequence (P25942 21-193 limits assumed): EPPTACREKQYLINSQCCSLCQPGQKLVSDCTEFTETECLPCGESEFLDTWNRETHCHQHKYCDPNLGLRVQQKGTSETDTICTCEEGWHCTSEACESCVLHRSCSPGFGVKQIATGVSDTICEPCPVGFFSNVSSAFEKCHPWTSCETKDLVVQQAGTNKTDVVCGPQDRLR

B1: 6032-2 (bispecific antibody)
heavy: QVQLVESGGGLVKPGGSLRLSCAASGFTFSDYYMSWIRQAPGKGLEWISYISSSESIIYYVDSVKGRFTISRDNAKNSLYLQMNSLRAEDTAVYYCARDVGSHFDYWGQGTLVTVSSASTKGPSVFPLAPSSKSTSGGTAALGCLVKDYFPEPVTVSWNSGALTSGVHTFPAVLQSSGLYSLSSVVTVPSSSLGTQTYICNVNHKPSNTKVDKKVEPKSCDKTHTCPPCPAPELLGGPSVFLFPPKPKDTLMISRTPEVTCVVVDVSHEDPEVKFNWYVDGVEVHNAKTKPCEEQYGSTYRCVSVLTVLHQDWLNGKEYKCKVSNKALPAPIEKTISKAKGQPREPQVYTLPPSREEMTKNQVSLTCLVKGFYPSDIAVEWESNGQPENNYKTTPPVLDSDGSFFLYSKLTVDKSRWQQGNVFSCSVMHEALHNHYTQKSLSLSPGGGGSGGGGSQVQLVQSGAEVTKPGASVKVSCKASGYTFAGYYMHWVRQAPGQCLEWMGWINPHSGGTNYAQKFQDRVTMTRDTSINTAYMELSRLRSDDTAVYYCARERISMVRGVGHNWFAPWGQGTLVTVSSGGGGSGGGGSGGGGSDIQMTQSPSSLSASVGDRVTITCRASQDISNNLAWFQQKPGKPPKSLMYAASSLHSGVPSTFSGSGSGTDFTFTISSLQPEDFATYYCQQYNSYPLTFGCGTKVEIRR
light: DIQMTQSPSSVSASVGDRVTITCRASQDISRWLAWYQQKPGKAPKLLISAASRLQSGVPSRFSGSGSGTDFTLTISSLQPEDFAIYYCQQAKSFPRTFGQGTKVEIKRTVAAPSVFIFPPSDEQLKSGTASVVCLLNNFYPREAKVQWKVDNALQSGNSQESVTEQDSKDSTYSLSSTLTLSKADYEKHKVYACEVTHQGLSSPVTKSFNRGEC
notes: IgG-scFv: IgG (MSLN) 6F4, scFv (CD40) 29H10
Take B1: the Kd with huCD40(1-193) is 2 nM; in the test with huMSLN(296-598), 0.4 nM; with cynoCD40(1-193), 1.7 nM; with cynoMSLN(296-598), 5.8 nM. In addition, the koff in the test with huCD40(1-193) amounted to 0.000407 s⁻¹; with huMSLN(296-598), 0.000306 s⁻¹; in the test with cynoCD40(1-193), 0.000407 s⁻¹; with cynoMSLN(296-598) it was 0.00199 s⁻¹. Further, the kon stood at 204000 M⁻¹ s⁻¹ with huCD40(1-193), 692000 M⁻¹ s⁻¹ with huMSLN(296-598), 238000 M⁻¹ s⁻¹ with cynoCD40(1-193) and 345000 M⁻¹ s⁻¹ with cynoMSLN(296-598). The “EC50 (nM), CD86 upregulation on human B cells with huMSLN-CHO cells” value in the test with human CD40 [1] was found to be 0.00935 nM.

B2: 33H9 (antibody, IgG4, V domains shown)
VH: QVQLVESGGGVVQPGRSLRLSCAASGFTFSSHGMHWVRQPPGKGLEWVAVIWYDGSNEYYGDSVKGRFTISRDNSKNTLYLQMNSLRVEDTAVYYCTRGGGHWNYEGHYYGMDVWGQGTTVTVSS
VL: QAVPTQPSSLSASPGASASLTCTLRSGINVGSSRIYWYQQKPGSPPQFLLRYTSDSDKLQGSGVPSRFSGSKDASANAGLLLISGLQSEDEADYYCMIWHSSAVVFGGGTKLTVLG
notes: also called 4897-1
With B2, the “fold over control (gMFI)” value in the test with human TNFR2 [2] was found to be 0.93 fold; with mouse CD40 on cells [3] it was 0.9 fold; with human TNFR14 [4], 0.88 fold; with human TNFR10, 0.89 fold; in the test with human TNFR1 [5], 1.03 fold; in [6], 73 fold. Besides, in the test with human CD40 on cells [7], the “human B cell proliferation, no crosslinking, % Max Activity” value is 2.3%. Moreover, the “human B cell proliferation, no crosslinking, EC50” value in the test with human CD40 on cells [7] was above 13.4 nM; with human CD40 on cells [13], above 16.7 nM. Further, in the test with human CD40 on cells [7], the “human B cell proliferation, with protein G crosslinking, % Max Activity” value is 88.9%. Further, the “human B cell proliferation, with protein G crosslinking, EC50” value worked out at 0.19 nM in the test with human CD40 on cells [7] and 0.344 nM with human CD40 on cells [13]. In addition, the binding result with human TNFR2 [8], with human TNFR14 [9], with human TNFR1 [10] and with mouse CD40 on cells [15] was “no binding” throughout. The “Ligand Binding Inhibition (%)” value in the test with human CD40 on cells [11] was 1%; in the test with human CD40 on cells [14], -3%; with human CD40 on cells [16], 9%; in the test with human CD40 on cells [17] it was 3%. Also, the equilibrium dissociation constant (Kd) in the test with human CD40 [12] is 0.58 nM. In the test with human CD40 [12], this molecule came in with a dissociation rate constant (koff) of 0.000238 s⁻¹. Further, the on-rate constant (kon) in the test with human CD40 [12] was 407000 M⁻¹ s⁻¹. In addition, in the test with human CD40 on cells [13], the “human B cell proliferation, no crosslinking, Max Fold Change” value is 1.35 fold. The “human B cell proliferation, with protein G crosslinking, Max Fold Change” value with human CD40 on cells [13] came to 23.2 fold.
